Assay results published in the supplement of paper PMC7877785.
± gives the uncertainty stated by the source.

Assay: self-splicing fitness, log relative to wild type (ln ratio); higher = more splicing; Tetrahymena group I intron in knt gene, E. coli kanamycin selection, DiMSum; sequences stand for … in CUCUCU…GGAGGGAAAAGUUAUCAGGCAUGCACCUGGUAGCUAGUCUUUAAACCAAUAGAUUGCAUCGGUUUAAAAGGCAAGACCGUCAAAUUGCGGGAAAGGGGUCAACAGCCGUUCAGUACCAAGUCUCAGGGGAAACUUUGAGAUGGCCUUGCAAAGGGUAUGGUAAUAAGCUGACGGACAUGGUCCUAACCACGCAGCCAAGUCCUAAGUCAACAGAUCUUCUGUUGAUAUGGAUGCAGUUCACAGACUAAAUGUCGGUCGGGGAAGAUGUAUUCUUCUCAUAAGAUAUAGUCGGACCUCUCCUUAAUGGGAGCUAGCGGAUGAAGUGAUGCAACACUGGAGCCGCUGGGAACUAAUUUGUAUGCGAAAGUAUAUUGAUUAGUUUUGGAGUACUCGUGGUCG
Outline: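 Fitness was computed with DiMSum as the error-weighted combination of replicate fold changes, kanamycin versus none, each normalised to wild type. The library randomised all eight intron nucleotides of the P1ex region, with the intron placed in the knt kanamycin-resistance gene on pET-22b(+) in E. coli BL21(DE3). Six replicate transformations were grown overnight at 37°C or 30°C on LB agar with or without 25 μg/mL kanamycin, plus 100 μg/mL carbenicillin, 50 μM IPTG and 0.2% rhamnose. Pooled colonies were amplicon-sequenced on an Illumina HiSeq 2500.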

Sequence | self-splicing fitness (ln) (30 °C) | self-splicing fitness (ln) (37 °C)
GCCCAGCAAUAUUACGGGAC | -4.73 ± 0.31 | -2.48 ± 0.14
UGGUAGCAAUAUUACGUUAC | -2.42 ± 0.37 | –
CCUAAGCAAUAUUACGAGCA | -2.92 ± 0.3 | -3.08 ± 0.35
UGAGAGCAAUAUUACGGCUG | -1.5 ± 0.15 | -0.389 ± 0.26
UCCUAGCAAUAUUACGACUG | -3.17 ± 0.27 | -3.52 ± 0.42
AGUUAGCAAUAUUACGGCUU | -2.22 ± 0.23 | -1.04 ± 0.22
AAAAAGCAAUAUUACGGCAC | -0.499 ± 0.076 | -0.593 ± 0.1
ACCAAGCAAUAUUACGGUCG | -3.81 ± 0.22 | -2.56 ± 0.15
CAACAGCAAUAUUACGCAAU | -2.87 ± 0.16 | -1.87 ± 0.15
UACGAGCAAUAUUACGGCCA | -1.61 ± 0.21 | -1.85 ± 0.18
GUGUAGCAAUAUUACGCGUU | – | -0.621 ± 0.17
CCUCAGCAAUAUUACGUUAC | -3.54 ± 0.19 | -3.7 ± 0.36
AAAGAGCAAUAUUACGAGGA | -2.26 ± 0.31 | -2.6 ± 0.27
AGCCAGCAAUAUUACGCAAU | -3.25 ± 0.2 | -1.35 ± 0.17
CGGAAGCAAUAUUACGACUC | -0.372 ± 0.081 | -1.1 ± 0.08
AACUAGCAAUAUUACGGCCU | -0.472 ± 0.09 | -0.0804 ± 0.095
CUUUAGCAAUAUUACGAAAG | -3.18 ± 0.23 | -1.7 ± 0.28
CUCGAGCAAUAUUACGCGCG | -2.81 ± 0.27 | -1.48 ± 0.32
AGCAAGCAAUAUUACGAAUG | -3.77 ± 0.18 | -1.71 ± 0.13
GGACAGCAAUAUUACGCUCC | – | -1.24 ± 0.46
UCCCAGCAAUAUUACGGAGU | -0.413 ± 0.053 | -0.504 ± 0.066
UUAUAGCAAUAUUACGUUGU | -3.44 ± 0.27 | -2.38 ± 0.23
CGACAGCAAUAUUACGUCGA | -3.04 ± 0.18 | -2.51 ± 0.15
AAGCAGCAAUAUUACGCGCG | -1.16 ± 0.082 | -0.105 ± 0.1

Sequence | self-splicing fitness (ln) (30 °C) | self-splicing fitness (ln) (37 °C)
UCCCAGCAAUAUUACGAGUC | -3.66 ± 0.18 | -1.56 ± 0.17
UCCCAGCAAUAUUACGUGAU | -2.17 ± 0.076 | -1.52 ± 0.12
GUGAAGCAAUAUUACGGCUG | -0.541 ± 0.082 | 0.0938 ± 0.11
UGUCAGCAAUAUUACGGCGC | -2.76 ± 0.21 | -1.65 ± 0.19
AAGGAGCAAUAUUACGACAA | -2.38 ± 0.2 | -2.16 ± 0.33
CGCUAGCAAUAUUACGCAAG | -3.76 ± 0.32 | -2.49 ± 0.33
AAGGAGCAAUAUUACGAAGG | -3.3 ± 0.28 | -2.99 ± 0.41
AACCAGCAAUAUUACGCCCC | -0.331 ± 0.12 | -0.517 ± 0.17
GUCGAGCAAUAUUACGCCGU | -1.32 ± 0.3 | -0.299 ± 0.38
GGCCAGCAAUAUUACGAUAU | -1.67 ± 0.08 | -1.78 ± 0.1
GAAUAGCAAUAUUACGAAUU | -1.78 ± 0.084 | -0.497 ± 0.1
AUAGAGCAAUAUUACGUCUC | -0.924 ± 0.15 | -0.745 ± 0.16
AAGCAGCAAUAUUACGAAGU | -3.3 ± 0.13 | -1.34 ± 0.13
AGGCAGCAAUAUUACGACGU | -0.0258 ± 0.11 | 0.539 ± 0.087
UGUUAGCAAUAUUACGGGCG | -0.142 ± 0.11 | 0.388 ± 0.12
AUCUAGCAAUAUUACGAGUC | -4.11 ± 0.36 | -2.19 ± 0.25
CGUUAGCAAUAUUACGCGGA | -2.82 ± 0.47 | -1.31 ± 0.17
GAAAAGCAAUAUUACGCUAU | -2.9 ± 0.21 | -0.854 ± 0.2
CUACAGCAAUAUUACGGGGA | -3.52 ± 0.26 | -1.79 ± 0.16
AAUAAGCAAUAUUACGGUCG | -1.03 ± 0.098 | -0.232 ± 0.12
UCUGAGCAAUAUUACGGAGG | -3.34 ± 0.32 | -1.79 ± 0.27
UAACAGCAAUAUUACGUUAG | -2.24 ± 0.087 | -0.961 ± 0.086
CUACAGCAAUAUUACGAUGG | -1.44 ± 0.053 | -0.971 ± 0.077
AGCAAGCAAUAUUACGCUAC | -3.82 ± 0.29 | -3.16 ± 0.4
